In patent publication US20220259318A1 (Hoffmann-La Roche, published 2022):
Positions count from the first letter of the chain named. Where “and” joins values, the source holds several entries; their conditions need not be identical. Identical values can stand only once.

B1: 5F11_P1AE5741 (antibody, V domains shown)
VH: EVQLVESGGGVVQPGRSLRLSCAASGFSFSNYGMAWVRQAPGKGLEWVASISTGGGNTYYRDSVKGRFTISRDNAKNTLYLQMNSLRAEDTAVYYCTRHDRGGLYWGQGTMVTVSS
VL: DIVMTQSPLSLPVTPGEPASISCRSSKSLLHSNGITYVYWYLQKPGQSPQLLIYRMSNRASGVPDRFSGSGSGTDFTLKISRVEAEDVGVYHCGQLLENPYTFGQGTKLEIK
notes: Humanized 5F11 IgG; PGLALA Fc implied by the CAR-J assay; also called 5F11_VH1b + 5F11_VL2a
B2: 5F11_P1AE5745 (antibody, V domains shown)
VH: B1 VH with E1Q, R61A, A75S
VL: B1 VL with Q47K, L51V, R59L
notes: Humanized 5F11 IgG; PGLALA Fc implied by the CAR-J assay; also called 5F11_VH1c + 5F11_VL1b
B3: P1AE5763 (antibody, V domains shown)
VH: B1 VH with V11L, R16G, R61A
VL: DIVMTQSPDSLAVSLGERATINCKSSKSLLHSNGITYVYWYQQKPGQPPKLLIYRMSNLASGVPDRFSGSGSGTDFTLTISSLQAEDVAVYHCGQLLENPYTFGQGTKLEIK
notes: Humanized 5F11 IgG; PGLALA Fc implied by the CAR-J assay; also called 5F11_VH2d + 5F11_VL2b
B4: P1AE5744 (antibody, V domains shown)
VH: B1 VH with E1Q, R61A, A75S
VL: B1 VL with L51V, R59L
notes: Humanized 5F11 IgG; PGLALA Fc implied by the CAR-J assay; also called 5F11_VH1c + 5F11_VL1a
B5: 5E11_P1AE5723 (antibody, V domains shown)
VH: EVQLLESGGGLVQPGGSLRLSCAASGFTFSKYAMAWVRQAPGKGLEWVASISTGGVNTYYADSVKGRFTISRDNSKNTLYLQMNSLRAEDTAVYYCATHTGDYFDYWGQGTMVTVSS
VL: EIVLTQSPGTLSLSPGERATLSCRASQSVSISGINLMNWYQQKPGQQPKLLIYHASILASGIPDRFSGSGSGTDFTLTISRLEPEDFAVYYCQQTRESPLTFGQGTRLEIK
notes: Humanized 5E11 IgG; PGLALA Fc implied by the CAR-J assay; also called 5E11_VH1c + 5E11_VL2b
B6: P1AE5724 (antibody, V domains shown)
VH: B5 VH
VL: DIQMTQSPSSLSASVGDRVTITCRASQSVSISGINLMNWYQQKPGKQPKLLIYHASILASGVPSRFSGSGSGTDFTLTISSLQPEDFATYYCQQTRESPLTFGQGTRLEIK
notes: Humanized 5E11 IgG; PGLALA Fc implied by the CAR-J assay; also called 5E11_VH1c + 5E11_VL3a
B7: P1AE5725 (antibody, V domains shown)
VH: B5 VH
VL: B6 VL with K46Q
notes: Humanized 5E11 IgG; PGLALA Fc implied by the CAR-J assay; also called 5E11_VH1c + 5E11_VL3b
B8: P1AE5712 (antibody, V domains shown)
VH: B5 VH with A61R, G66A
VL: B6 VL
notes: Humanized 5E11 IgG; PGLALA Fc implied by the CAR-J assay; also called 5E11_VH1a + 5E11_VL3a
B9: P1AE5719 (antibody, V domains shown)
VH: B5 VH with V2L, A61R, G66A, S75A
VL: B6 VL with K46Q
notes: Humanized 5E11 IgG; PGLALA Fc implied by the CAR-J assay; also called 5E11_VH1b + 5E11_VL3b
B10: P1AE5730 (antibody, V domains shown)
VH: B5 VH with V2L, S75A
VL: B6 VL
notes: Humanized 5E11 IgG; PGLALA Fc implied by the CAR-J assay; also called 5E11_VH1d + 5E11_VL3a
B11: P1AE5731 (antibody, V domains shown)
VH: B5 VH with V2L, S75A
VL: B6 VL with K46Q
notes: Humanized 5E11 IgG; PGLALA Fc implied by the CAR-J assay; also called 5E11_VH1d + 5E11_VL3b
B12: P1AE5718 (antibody, V domains shown)
VH: B5 VH with V2L, A61R, G66A, S75A
VL: B6 VL
notes: Humanized 5E11 IgG; PGLALA Fc implied by the CAR-J assay; also called 5E11_VH1b + 5E11_VL3a
B13: 5E11_P1AE5728 (antibody, V domains shown)
VH: B5 VH with V2L, S75A
VL: B5 VL with K49R
notes: Humanized 5E11 IgG; PGLALA Fc implied by the CAR-J assay; also called 5E11_VH1d + 5E11_VL2a
B14: P1AE5726 (antibody, V domains shown)
VH: B5 VH with V2L, S75A
VL: DIVMTQSPDSLAVSLGERATINCRASQSVSISGINLMNWYQQKPGQQPKLLIYHASILASGVPDRFSGSGSGTDFTLTISSLQAEDVAVYYCQQTRESPLTFGQGTRLEIK
notes: Humanized 5E11 IgG; PGLALA Fc implied by the CAR-J assay; also called 5E11_VH1d + 5E11_VL1a
B15: P1AE5727 (antibody, V domains shown)
VH: B5 VH with V2L, S75A
VL: B14 VL with R24K, A25S
notes: Humanized 5E11 IgG; PGLALA Fc implied by the CAR-J assay; also called 5E11_VH1d + 5E11_VL1c
B16: ET150-5-TCB (bispecific antibody, human IgG1, lambda, L234A L235A)
light 1: QSVLTQPPSASGTPGQRVTISCSGSRSNVGGNYVFWYQQVPGATPKLLIYRSNQRPSGVPDRFAGSKSGSSASLAISGLRSEDEADYYCATWDDSLSGFVFGTGTKVTVLGQPKAAPSVTLFPPSSKKLQANKATLVCLISDFYPGAVTVAWKADSSPVKAGVETTTPSKQSNNKYAASSYLSLTPEQWKSHRSYSCQVTHEGSTVEKTVAPTECS
light 2: EVQLLESGGGLVQPGGSLRLSCAASGFTFSTYAMNWVRQAPGKGLEWVSRIRSKYNNYATYYADSVKGRFTISRDDSKNTLYLQMNSLRAEDTAVYYCVRHGNFGNSYVSWFAYWGQGTLVTVSSASVAAPSVFIFPPSDEQLKSGTASVVCLLNNFYPREAKVQWKVDNALQSGNSQESVTEQDSKDSTYSLSSTLTLSKADYEKHKVYACEVTHQGLSSPVTKSFNRGEC
heavy 1: EVQLVESGGGLVKPGGSLRLSCAASGFTFSDYYMSWIRQAPGKGLEWVSYISSSGSTIYYADSVKGRFTISRDNAKNSLYLQMNSLRAEDTAVYYCARGYGKAYDQWGQGTLVTVSSASTKGPSVFPLAPSSKSTSGGTAALGCLVEDYFPEPVTVSWNSGALTSGVHTFPAVLQSSGLYSLSSVVTVPSSSLGTQTYICNVNHKPSNTKVDEKVEPKSCDKTHTCPPCPAPEAAGGPSVFLFPPKPKDTLMISRTPEVTCVVVDVSHEDPEVKFNWYVDGVEVHNAKTKPREEQYNSTYRVVSVLTVLHQDWLNGKEYKCKVSNKALGAPIEKTISKAKGQPREPQVCTLPPSRDELTKNQVSLSCAVKGFYPSDIAVEWESNGQPENNYKTTPPVLDSDGSFFLVSKLTVDKSRWQQGNVFSCSVMHEALHNHYTQKSLSLSPGK
heavy 2: not shown

biological target: T1, human GPRC5D (human, UniProt Q9NZD1 1-345); experiment: cell ELISA, CHO hu GPRC5D (EC/IC50 rel)
T1 construct: also called G protein-coupled receptor class C group 5 member D; hu GPCR5D
T1 sequence (Q9NZD1 whole entry): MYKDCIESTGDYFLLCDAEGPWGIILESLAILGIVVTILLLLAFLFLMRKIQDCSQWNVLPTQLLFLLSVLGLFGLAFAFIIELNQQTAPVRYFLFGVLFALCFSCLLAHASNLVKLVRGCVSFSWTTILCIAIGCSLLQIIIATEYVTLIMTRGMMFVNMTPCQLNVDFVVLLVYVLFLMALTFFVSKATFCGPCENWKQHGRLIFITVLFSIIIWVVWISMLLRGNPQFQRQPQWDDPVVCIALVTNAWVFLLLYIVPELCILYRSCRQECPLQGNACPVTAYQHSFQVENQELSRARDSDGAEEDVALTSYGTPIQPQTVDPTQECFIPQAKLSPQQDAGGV
Description: Stable transfected CHO clones expressing either human GPRCSD or cynomolgus GPRCSD or murine GPRCSD or human GPRCSA were used to analyze the binding of potential lead candidate antibodies as IgGs. In detail, 10⁴ cells (viability≥98%) were seeded into 384 well-microtiter plates (BD Poly D-Lysin, #356662, volume: 25 μl/well) using fresh culture medium. After overnight incubation at 37° C., 25 μl/well dilutions of antibodies were added (15×1:3 dilutions in 1×PBS, assay conc. starts at 30 μg/ml) to the cells for 2 hours at 4° C. After one washing step using 90 μl/well PBST (10×PBS, Roche, #11666789001+0.1% Tween 20), cells were subsequently fixed by the addition of 50 μl/well 0.05% glutaraldehyde (Sigma Cat. No: G5882 in 1×PBS) for 10 min at room temperature (RT). After three additional washing steps using 90 μl/well PBST, secondary antibodies were added for detection: for human antibodies goat anti-human Ig a chain antibody HRP conjugate (Millipore #AP502P) diluted 1:2000 in blocking buffer (1×PBS (Roche #11666789001)+2% BSA (Bovine Serum Albumin Fraction V, fatty acid free, Roche, #10735086001)+0.05% Tween 20) was used (25 μl/well). […] After incubation for 1 h at RT and three additional washing steps using 90 μl/well PBST, 25 μl/well TMB substrate was added (Roche order no. 11835033001) for 10 min and color development to final ODs was determined by measurement at 370 nm/492 nm.
For the characterization of the humanization variants of the VH and VL domains of the GPRC5D binders the ELISA protocol as described above was used (see Example 7). The data are summarized in the table 10 for the humanization variants of 5E11 and in table 11 for the humanization variants of 5F11.

EC50 | Binder
0.0067 µg/mL and 0.04 nM | B1
0.0097 µg/mL and 0.06 nM | B2
0.006 µg/mL and 0.04 nM | B3
0.0086 µg/mL and 0.06 nM | B4
0.006 µg/mL and 0.04 nM | B5
0.0053 µg/mL and 0.04 nM | B6
0.0051 µg/mL and 0.03 nM | B7
0.0131 µg/mL and 0.09 nM | B8
0.0166 µg/mL and 0.11 nM | B9
0.008 µg/mL and 0.05 nM | B10
0.0052 µg/mL and 0.03 nM | B11
0.0121 µg/mL and 0.08 nM | B12
0.0079 µg/mL and 0.05 nM | B13
0.0076 µg/mL and 0.05 nM | B14
0.0087 µg/mL and 0.06 nM | B15

biological target: T1, human GPRC5D; experiment: cell-based or functional assay

Binder | EC50 of anti-GPRC5D-TCB mediated killing, AMO-1 | EC50 of anti-GPRC5D-TCB mediated killing, L363 | EC50 of anti-GPRC5D-TCB mediated killing, NCI-H929 | EC50 of anti-GPRC5D-TCB mediated killing, RPMI-8226
B16 | 0.0835 nM | 0.768 nM | 0.833 nM | 0.797 nM

biological target: T1, human GPRC5D; experiment: cell-based or functional assay; remark: another data set of the same source

EC50 values of CAR-J activation | Binder
1.4 ng/mL | B1
1.62 ng/mL | B2
5.47 ng/mL | B3
3.63 ng/mL | B4
3.7 ng/mL | B5
3.5 ng/mL | B10
105 ng/mL | B12
5.6 ng/mL | B13

biological target: T1, human GPRC5D; experiment: cell-based or functional assay; remark: another data set of the same source

CAR-J2 EC50 [ng/mL] (PGLALA-CAR-J activation, L363 target cells) | Binder
3.7 ng/mL | B5
3.6 ng/mL | B6
10.9 ng/mL | B7
16.1 ng/mL | B8
2.8 ng/mL | B9
3.5 ng/mL | B10
2.3 ng/mL | B11
105 ng/mL | B12
5.6 ng/mL | B13
37.8 ng/mL | B14
6.3 ng/mL | B15

biological target: T1, human GPRC5D; experiment: cell-based or functional assay; remark: another data set of the same source

CAR-J2 EC50 [ng/mL] (PGLALA-CAR-J activation, L363 target cells) | Binder
1.4 ng/mL | B1
1.62 ng/mL | B2
5.47 ng/mL | B3
3.63 ng/mL | B4
